Data published in PMC3714538.

biological target: LC3B (protein of the ITC experiments) (UniProt Q9GZQ8); assay: ITC

Row | Kd | Substance
1 | 67 µM | OPTN peptide LIR_P0 (no phosphorylation) (from UniProt Q96CV9 169-184)
2 | 5 µM | OPTN peptide LIR_Ptot (all serines phosphorylated) (from UniProt Q96CV9 169-184)
3 | 13 µM | OPTN peptide LIR_P1 (pSer177) (from UniProt Q96CV9 169-184)
